# In patent US20240425606A1, “ANTI-IL-11RA ANTIBODIES” (Lassen Therapeutics 1, Inc., priority 2021, published 2024):
# T1: human IL-11Rα (human, UniProt Q14626 23-363, limits assumed)
# T1 construct: Protein coated on ELISA plates and used in solution for BLI; also called hIL-11Rα; hIL-11R
# T1 sequence: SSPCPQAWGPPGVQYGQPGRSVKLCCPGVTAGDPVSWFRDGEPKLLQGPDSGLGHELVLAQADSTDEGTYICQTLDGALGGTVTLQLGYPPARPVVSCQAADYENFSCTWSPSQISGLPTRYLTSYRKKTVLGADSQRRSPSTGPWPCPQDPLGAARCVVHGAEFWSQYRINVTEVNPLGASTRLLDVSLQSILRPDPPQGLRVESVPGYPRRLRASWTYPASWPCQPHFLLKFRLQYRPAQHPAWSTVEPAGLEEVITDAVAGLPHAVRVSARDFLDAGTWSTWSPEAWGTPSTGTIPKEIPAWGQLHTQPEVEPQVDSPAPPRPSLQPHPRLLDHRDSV
# T2: IL-11R on STAT3 Reporter (Luciferase)-HEK293 cells (UniProt Q14626 23-422)
# T2 sequence (looked up): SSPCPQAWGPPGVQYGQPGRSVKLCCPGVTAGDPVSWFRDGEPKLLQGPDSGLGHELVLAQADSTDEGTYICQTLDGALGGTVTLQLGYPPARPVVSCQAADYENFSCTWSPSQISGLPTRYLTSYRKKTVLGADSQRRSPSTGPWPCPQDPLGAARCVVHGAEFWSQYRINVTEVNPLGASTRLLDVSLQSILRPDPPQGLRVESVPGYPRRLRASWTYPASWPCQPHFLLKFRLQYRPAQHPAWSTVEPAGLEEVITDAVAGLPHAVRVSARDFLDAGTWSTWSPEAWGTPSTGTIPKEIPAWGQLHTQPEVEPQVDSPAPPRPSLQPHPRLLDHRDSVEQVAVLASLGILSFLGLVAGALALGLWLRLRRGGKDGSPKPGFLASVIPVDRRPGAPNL
# Legend:
# human IL-11Rα [1] = target: T1, human IL-11Rα; experiment: competitive ELISA, IL-11R coated on plate; competitor: biotinylated TS7 (0.1 µg/mL)
# Experimental: Relative binding activity of the antibodies was tested by competitive ELISA using biotinylated mAbs 8E2 or TS7. Antibodies 8E2 and TS7 were biotinylated using sulfo-NHS Biotin (Thermo Fisher) per the manufacturer's instructions. IL-11R was coated onto ELISA plates (Nunc, MaxiSorp) at 2 μg/mL in PBS, and plates were blocked with 2% BSA in PBS. After washing the plate with water, antibodies to be tested were titrated across the plate in a final volume of 90 μL followed by addition of 10 μL of biotinylated 8E2 or biotinylated TS7, as indicated in Table E1 (0.1 μg/mL final concentration) to each well. Plates were incubated for 2 hours on a plate-shaker, followed by washing and addition of 100 μL/well of streptavidin-HRP (Jackson ImmunoResearch, 1/1000 dilution). After a further 1 hour incubation, plates were washed, developed with Ultra-TMB HRP substrate (Thermo Fisher), and stopped by the addition of 50 μL/well of 2 M sulfuric acid. Plates were read at 450 nm on an iD5 plate reader (Molecular Devices).
# [2] = target: T2, IL-11R on STAT3 Reporter …; experiment: cell-based or functional assay
# human IL-11Rα [3] = target: T1, human IL-11Rα; experiment: BLI (Octet RED96e), mAb on protein G biosensors, hIL-11Rα in solution
# Experimental: Association was carried out in the presence of a 2-fold dilution series of hIL-11Rα and was allowed to proceed for 120 seconds; dissociation was measured for 300 to 1200 seconds.
Binder,IC50 (human IL-11Rα [1]) [µg/mL],"IC50, STAT3 luciferase reporter assay (HEK293), inhibiting IL-11, Assay 1 [2] [µg/mL]","IC50, STAT3 luciferase reporter assay (HEK293), inhibiting IL-11, Mean [2] [µg/mL]",Kd (human IL-11Rα [3]) [pM],koff (human IL-11Rα [3]) [s⁻¹],kon (human IL-11Rα [3]) [M⁻¹ s⁻¹],"IC50, STAT3 luciferase reporter assay (HEK293), inhibiting IL-11, Assay 2 [2] [µg/mL]"
"mAb10 (antibody, V domains shown, Expressed as human IgG4 (S228P EU)) VH: EVQLLESGGGLVQPGGSLRLSCAASGFTFSWYSMTWVRQAPGKGLEWVSSIVAYGDLTQYADSVKGRFTISRDNSKNTLYLQMNSLRAEDTAVYYCAKGPGWGSFDLWGRGTLVTVSS VL: DIQMTQSPSSLSASVGDRVTITCQASQDINNYLNWYQQKPGKAPKLLIYDASNLQTGVPSRFSGSGSGTDFTFTISSLQPEDIATYYCQQHESQSPTFGPGTKVDIK",> 15,2,2,496,0.000416,840000,–
"mAb9 (antibody, V domains shown, Expressed as human IgG4 (S228P EU)) VH: EVQLLESGGGLVQPGGSLRLSCAASGFTFSWYSMTWVRQAPGKGLEWVSGIVPYGDLTQYADSVKGRFTISRDNSKNTLYLQMNSLRAEDTAVYYCAKGPGWGSFDLWGRGTLVTVSS VL: DIQMTQSPSSLSASVGDRVTITCQASQDINNYLNWYQQKPGKAPKLLIYDASNLQTGVPSRFSGSGSGTDFTFTISSLQPEDIATYYCQQHESQSPTFGPGTKVDIK",2.3,0.11,0.1,< 1,< 1e-07,62200,0.1
"mAb8 (antibody, V domains shown, Expressed as human IgG4 (S228P EU)) VH: EVQLLESGGGLVQPGGSLRLSCAASGFTFSSYAMSWVRQAPGKGLEWVSSIVPYGDLTQYADSVKGRFTISRDNSKNTLYLQMNSLRAEDTAVYYCAKGPGWGSFDLWGRGTLVTVSS VL: DIQMTQSPSSLSASVGDRVTITCQASQDINNYLNWYQQKPGKAPKLLIYDASNLQTGVPSRFSGSGSGTDFTFTISSLQPEDIATYYCQQHESQSPTFGPGTKVDIK",6.2,0.67,0.96,< 1,< 1e-07,65100,1.25
"mAb11 (antibody, V domains shown, Expressed as human IgG4 (S228P EU)) VH: EVQLLESGGGLVQPGGSLRLSCAASGFTFSWYSMTWVRQAPGKGLEWVSSIVDYGDLTQYADSVKGRFTISRDNSKNTLYLQMNSLRAEDTAVYYCAKGPGWGSFDLWGRGTLVTVSS VL: DIQMTQSPSSLSASVGDRVTITCQASQDINNYLNWYQQKPGKAPKLLIYDASNLQTGVPSRFSGSGSGTDFTFTISSLQPEDIATYYCQQHESQSPTFGPGTKVDIK",> 15,> 100,> 100,550000,0.0181,32900,–

# Now from value to binder:
IC50 (human IL-11Rα [1]) [µg/mL],"IC50, STAT3 luciferase reporter assay (HEK293), inhibiting IL-11, Assay 1 [2] [µg/mL]","IC50, STAT3 luciferase reporter assay (HEK293), inhibiting IL-11, Mean [2] [µg/mL]",Kd (human IL-11Rα [3]) [pM],koff (human IL-11Rα [3]) [s⁻¹],kon (human IL-11Rα [3]) [M⁻¹ s⁻¹],"IC50, STAT3 luciferase reporter assay (HEK293), inhibiting IL-11, Assay 2 [2] [µg/mL]",Binder
6.9,1,1,< 1,< 1e-07,63500,–,"mAb7 (antibody, V domains shown, Expressed as human IgG4 (S228P EU)) VH: EVQLLESGGGLVQPGGSLRLSCAASGFTFSNYAMSWVRQAPGKGLEWVSSIVPYGDLTQYADSVKGRFTISRDNSKNTLYLQMNSLRAEDTAVYYCAKGPGWGSFDLWGRGTLVTVSS VL: DIQMTQSPSSLSASVGDRVTITCQASQDINNYLNWYQQKPGKAPKLLIYDASNLQTGVPSRFSGSGSGTDFTFTISSLQPEDIATYYCQQHESQSPTFGPGTKVDIK"
3.6,0.42,0.41,< 1,< 1e-07,58100,0.39,"mAb12 (antibody, V domains shown, Expressed as human IgG4 (S228P EU)) VH: EVQLLESGGGLVQPGGSLRLSCAASGFTFSWYSMTWVRQAPGKGLEWVSSIVPYGDLTQYADSVKGRFTISRDNSKNTLYLQMNSLRAEDTAVYYCAKGPGWYSFDLWGRGTLVTVSS VL: DIQMTQSPSSLSASVGDRVTITCQASQDINNYLNWYQQKPGKAPKLLIYDASNLQTGVPSRFSGSGSGTDFTFTISSLQPEDIATYYCQQHESQSPTFGPGTKVDIK"
